This is an account of results in US7063946B2, “Methods, reagents, kits and apparatus for protein function analysis” (Meso Scale Technologies, LLC., priority 2001, dated 2006).

B1: 4778819: IMAGE clone protein: Hck, hemopoietic cell kinase (protein, UniProt P08103 2-524, looked up)
Tyrosine-protein kinase HCK: GGRSSCEDPGCPRSEGRAPRMGCVKSRFLRDGSKASKTEPSANQKGPVYVPDPTSSSKLGPNNSNSMPPGFVEGSEDTIVVALYDYEAIHREDLSFQKGDQMVVLEEAGEWWKARSLATKKEGYIPSNYVARVNSLETEEWFFKGISRKDAERHLLAPGNMLGSFMIRDSETTKGSYSLSVRDFDPQHGDTVKHYKIRTLDSGGFYISPRSTFSSLQELVLHYKKGKDGLCQKLSVPCVSPKPQKPWEKDAWEIPRESLQMEKKLGAGQFGEVWMATYNKHTKVAVKTMKPGSMSVEAFLAEANLMKSLQHDKLVKLHAVVSQEPIFIVTEFMAKGSLLDFLKSEEGSKQPLPKLIDFSAQISEGMAFIEQRNYIHRDLRAANILVSASLVCKIADFGLARIIEDNEYTAREGAKFPIKWTAPEAINFGSFTIKSDVWSFGILLMEIVTYGRIPYPGMSNPEVIRALEHGYRMPRPDNCPEELYNIMIRCWKNRPEERPTFEYIQSVLDDFYTATESQYQQQP
B2: 4384416: IMAGE clone protein: BTK, Bruton agammaglobulinemia tyrosine kinase (protein, UniProt Q06187 2-659, looked up)
Tyrosine-protein kinase BTK: AAVILESIFLKRSQQKKKTSPLNFKKRLFLLTVHKLSYYEYDFERGRRGSKKGSIDVEKITCVETVVPEKNPPPERQIPRRGEESSEMEQISIIERFPYPFQVVYDEGPLYVFSPTEELRKRWIHQLKNVIRYNSDLVQKYHPCFWIDGQYLCCSQTAKNAMGCQILENRNGSLKPGSSHRKTKKPLPPTPEEDQILKKPLPPEPAAAPVSTSELKKVVALYDYMPMNANDLQLRKGDEYFILEESNLPWWRARDKNGQEGYIPSNYVTEAEDSIEMYEWYSKHMTRSQAEQLLKQEGKEGGFIVRDSSKAGKYTVSVFAKSTGDPQGVIRHYVVCSTPQSQYYLAEKHLFSTIPELINYHQHNSAGLISRLKYPVSQQNKNAPSTAGLGYGSWEIDPKDLTFLKELGTGQFGVVKYGKWRGQYDVAIKMIKEGSMSEDEFIEEAKVMMNLSHEKLVQLYGVCTKQRPIFIITEYMANGCLLNYLREMRHRFQTQQLLEMCKDVCEAMEYLESKQFLHRDLAARNCLVNDQGVVKVSDFGLSRYVLDDEYTSSVGSKFPVRWSPPEVLMYSKFSSKSDIWAFGVLMWEIYSLGKMPYERFTNSETAEHIAQGLRLYRPHLASEKVYTIMYSCWHEKADERPTFKILLSNILDVMDEES
B3: 4537393: IMAGE clone protein: TTK protein kinase (protein, UniProt P33981 1-857, looked up)
Dual specificity protein …: MESEDLSGRELTIDSIMNKVRDIKNKFKNEDLTDELSLNKISADTTDNSGTVNQIMMMANNPEDWLSLLLKLEKNSVPLSDALLNKLIGRYSQAIEALPPDKYGQNESFARIQVRFAELKAIQEPDDARDYFQMARANCKKFAFVHISFAQFELSQGNVKKSKQLLQKAVERGAVPLEMLEIALRNLNLQKKQLLSEEEKKNLSASTVLTAQESFSGSLGHLQNRNNSCDSRGQTTKARFLYGENMPPQDAEIGYRNSLRQTNKTKQSCPFGRVPVNLLNSPDCDVKTDDSVVPCFMKRQTSRSECRDLVVPGSKPSGNDSCELRNLKSVQNSHFKEPLVSDEKSSELIITDSITLKNKTESSLLAKLEETKEYQEPEVPESNQKQWQSKRKSECINQNPAASSNHWQIPELARKVNTEQKHTTFEQPVFSVSKQSPPISTSKWFDPKSICKTPSSNTLDDYMSCFRTPVVKNDFPPACQLSTPYGQPACFQQQQHQILATPLQNLQVLASSSANECISVKGRIYSILKQIGSGGSSKVFQVLNEKKQIYAIKYVNLEEADNQTLDSYRNEIAYLNKLQQHSDKIIRLYDYEITDQYIYMVMECGNIDLNSWLKKKKSIDPWERKSYWKNMLEAVHTIHQHGIVHSDLKPANFLIVDGMLKLIDFGIANQMQPDTTSVVKDSQVGTVNYMPPEAIKDMSSSRENGKSKSKISPKSDVWSLGCILYYMTYGKTPFQQIINQISKLHAIIDPNHEIEFPDIPEKDLQDVLKCCLKRDPKQRISIPELLAHPYVQIQTHPVNQMAKGTTEEMKYVLGQLVGLNSPNSILKAAKTLYEHYSGGESHNSSSSKTFEKKRGKK
B4: 4398416: IMAGE clone protein: Csk, c-src tyrosine kinase (protein, UniProt P41241 2-450, looked up)
Tyrosine-protein kinase CSK: SAIQAAWPSGTECIAKYNFHGTAEQDLPFCKGDVLTIVAVTKDPNWYKAKNKVGREGIIPANYVQKREGVKAGTKLSLMPWFHGKITREQAERLLYPPETGLFLVRESTNYPGDYTLCVSCEGKVEHYRIMYHASKLSIDEEVYFENLMQLVEHYTTDADGLCTRLIKPKVMEGTVAAQDEFYRSGWALNMKELKLLQTIGKGEFGDVMLGDYRGNKVAVKCIKNDATAQAFLAEASVMTQLRHSNLVQLLGVIVEEKGGLYIVTEYMAKGSLVDYLRSRGRSVLGGDCLLKFSLDVCEAMEYLEGNNFVHRDLAARNVLVSEDNVAKVSDFGLTKEASSTQDTGKLPVKWTAPEALREKKFSTKSDVWSFGILLWEIYSFGRVPYPRIPLKDVVPRVEKGYKMDAPDGCPPAVYEVMKNCWHLDAATRPTFLQLREQLEHIKTHELHL
B5: 4498209: IMAGE clone protein: EPHB1, EphB1 (protein, UniProt P54762 18-984, looked up)
Ephrin type-B receptor 1: MEETLMDTRTATAELGWTANPASGWEEVSGYDENLNTIRTYQVCNVFEPNQNNWLLTTFINRRGAHRIYTEMRFTVRDCSSLPNVPGSCKETFNLYYYETDSVIATKKSAFWSEAPYLKVDTIAADESFSQVDFGGRLMKVNTEVRSFGPLTRNGFYLAFQDYGACMSLLSVRVFFKKCPSIVQNFAVFPETMTGAESTSLVIARGTCIPNAEEVDVPIKLYCNGDGEWMVPIGRCTCKPGYEPENSVACKACPAGTFKASQEAEGCSHCPSNSRSPAEASPICTCRTGYYRADFDPPEVACTSVPSGPRNVISIVNETSIILEWHPPRETGGRDDVTYNIICKKCRADRRSCSRCDDNVEFVPRQLGLTECRVSISSLWAHTPYTFDIQAINGVSSKSPFPPQHVSVNITTNQAAPSTVPIMHQVSATMRSITLSWPQPEQPNGIILDYEIRYYEKEHNEFNSSMARSQTNTARIDGLRPGMVYVVQVRARTVAGYGKFSGKMCFQTLTDDDYKSELREQLPLIAGSAAAGVVFVVSLVAISIVCSRKRAYSKEAVYSDKLQHYSTGRGSPGMKIYIDPFTYEDPNEAVREFAKEIDVSFVKIEEVIGAGEFGEVYKGRLKLPGKREIYVAIKTLKAGYSEKQRRDFLSEASIMGQFDHPNIIRLEGVVTKSRPVMIITEFMENGALDSFLRQNDGQFTVIQLVGMLRGIAAGMKYLAEMNYVHRDLAARNILVNSNLVCKVSDFGLSRYLQDDTSDPTYTSSLGGKIPVRWTAPEAIAYRKFTSASDVWSYGIVMWEVMSFGERPYWDMSNQDVINAIEQDYRLPPPMDCPAALHQLMLDCWQKDRNSRPRFAEIVNTLDKMIRNPASLKTVATITAVPSQPLLDRSIPDFTAFTTVDDWLSAIKMVQYRDSFLTAGFTSLQLVTQMTSEDLLRIGITLAGHQKKILNSIHSMRVQISQSPTAMA

The first assay has as its system pEY. Nature of the assay: In vitro kinase library screen: activity towards pEY. As to conditions: 5 ul of expressed protein. It counts as biochemical. The method, then: Proteins were produced in an in vitro transcription and translation reaction. […] The unbound components of the reaction containing endogenous kinases were removed by three washes with TT-buffer (25 mM Tris-HCl buffer pH 7.4 and 0.004% Triton), two five minutes washings with high-salt wash buffer (25 mM Tris-HCl buffer pH 7.4, 0.004% Triton, 1M NaCl and 5 mM DTT) and 3 more washes with TT-buffer. To these immobilized and purified proteins a tyrosine kinase substrate, 5 nM pEY (poly Glu-Tyr, Sigma, MO), was added in a 50 μl reaction solution containing 5 mM MgCl2, 5 mM MnCl2, 100 μM ATP, 25 mM Tris-HCl buffer pH 7.4, 0.05 mM Na3VO4, 0.004% TritonX-100, 2 mM DTT and EDTA-free protease inhibitor (Roche Molecular Biochemicals). This mixture was incubated with shaking at room temperature overnight to allow phosphorylation of the pEY substrate by the immobilized kinases. Following this incubation, 45 μl of this mixture was transferred to a streptavidin or avidin-coated NPT IPR plate coated with biotinylated anti-phosphotyrosine antibody (PY20, Zymed labs, CA) followed by incubation for 30 minutes at room temperature to allow the binding of the phosphorylated pEY substrate to the PY20 coated NPT plate. Following this binding step, 50 ng Sulfo-TAG labeled anti-phosphotyrosine in buffer containing 25 mM Tris-HCl buffer pH 7.4, 5 mM MgCl2, 0.05 mM Na3VO4, 0.004% TritonX-100, 2 mM DTT and 0.05% IgG was added followed by incubation at room temperature for 30 mm. The unbound reagents were removed by one time washing with water, and the TAG label was detected in presence of 150 μl IPR assay buffer (0.4 mM Gly-Gly buffer, pH 7.8, 1 mM EDTA, 0.1 M TPA). The ECL signals were measured using an imaging plate reader.
(§1) Proteins were produced in an in vitro transcription and translation reaction as described in the Materials and Methods. […] The reaction was stopped by mixing with BB2 buffer. Biotinylated proteins from 50 μl of the mixture (representing 0.5 μl to 5 μl of TnT reaction) were immobilized onto streptavidin or avidin coated NPT-IPR plates by shaking at room temperature for 45 min. The activity of the immobilized protein towards pEY or autophosphorylation was further assayed by the methods described in examples 7 and 8.
Consider B1, for which the HTS signal was 958,415.

With B2, the HTS signal is 793,874.

Turning to B3, the HTS signal is given as 1,711.

Turning to B4, the HTS signal is on record as 683,039.

In the case of B5, the HTS signal is 853.

Another assay has as its system autophosphorylation (phosphotyrosine). Nature of the assay: In vitro kinase library screen: autophosphorylation. It counts as biochemical.
Conditions: not given
Here is the method:
Proteins were produced from DNA plasmids of Mock Luciferase, Promega, tyrosine kinase clone Spleen Tyrosine kinase (SYK, IMAGE ID# 3870426) and Eph receptor-A7 (EphA7, IMAGE ID# 3991628) (Incyte Genomics, CA) and immobilized on streptavidin or avidin coated NPT-IPR plates as described in the Example 7. To promote autophosphorylation in these immobilized and purified proteins, Mn++ ions were added in a 50 μl reaction containing 5 mM MgCl2, 5 mM MnCl2, 100 μM ATP, 25 mM Tris-HCl buffer pH 7.4, 0.05 mM Na3VO4, 0.004% TritonX-100, 2 mM DTT and EDTA-free protease inhibitor (Roche Molecular Biochemicals). This mixture was incubated with shaking at room temperature overnight to allow autophosphorylation. Following this incubation, wells were washed 2 times with TT-buffer and 2 times with water. Following this step, 50 ng Sulfo-TAG labeled anti-phosphotyrosine in buffer containing 25 mM Tris-HCl buffer pH 7.4, 5 mM MgCl2, 0.05 mM Na3VO4, 0.004% TritonX-100, 2 mM DTT and 0.05% IgG in a final volume of 50 μl was added followed by incubation at room temperature for 45 min. The unbound reagents were removed by one time washing with water, and the TAG label was detected in presence of 150 μl IPR assay buffer (0.4 mM Gly—Gly buffer, pH 7.8, 1 mM EDTA, 0.1 M TPA). The ECL signals were measured using an imaging plate reader.
as §1
For B1, the ECL signal is reported as 1,198,625.

For B2, the ECL signal is 1,503,772.

Take B3: the ECL signal is listed as 50,479.

For B4, the ECL signal is listed as 349,847.

Consider B5, for which the ECL signal is listed as 3,138.
